# Reference: US20250186580A1 (TRIDEM BIOSCIENCE, published 2025)
# B1: soluble murine Fc-dectin-1a receptor (InvivoGen) (Fc fusion)
# chain: EYGHNSGRNPEEKDNFLSRNKENHKPTESSLDEKVAPSKASQTTGGFSQPCLPNWIMHGKSCYLFSFSGNSWYGSKRHCSQLGAHLLKIDNSKEFEFIESQTSSHRINAFWIGLSRNQSEGPWFWEDGSAFFPNSFQVRNTAPQESLLHNCVWIHGSEVYNQICNTSSYSICEKEL
# Target: Menveo, Neisseria meningitidis oligosaccharide (A, C, W135, Y) CRM197 conjugate vaccine, without β-glucan … (UniProt P00588 33-567)
# Assay: competitive ELISA, soluble murine Fc-dectin-1a on coated glucan
binder,measurement,value
B1,binding result,no binding
